According to article PMC7869511, “Computer-aided design of PVR mutants with enhanced binding affinity to TIGIT” (Cell Communication and Signaling : CCS, 2021):
Like-named read-outs stand apart in the source and are kept apart here.

Experiments:
[1] = molecular target: nectin-2 (Homo sapiens) (UniProt Q92692); conditions: cited from earlier work
[2] = molecular target: PVR (Homo sapiens) (UniProt P15151); conditions: cited from earlier work
[3] = molecular target: PVR (Homo sapiens) (UniProt P15151); conditions: cited from earlier work; remark: listed apart in the source
[4] = molecular target: T1, wild-type PVR fused with EGFP, extracted membrane protein (human), P15151; assay: MST; extracted membrane protein of PVR or PVR mutants fused with EGFP (quantified by EGFP fluorescence) as the fluorescent partner; TIGIT-His serially diluted two-fold from 25 μM to 0.000153 μM; conditions: remark: other sources report otherwise
T1 chain: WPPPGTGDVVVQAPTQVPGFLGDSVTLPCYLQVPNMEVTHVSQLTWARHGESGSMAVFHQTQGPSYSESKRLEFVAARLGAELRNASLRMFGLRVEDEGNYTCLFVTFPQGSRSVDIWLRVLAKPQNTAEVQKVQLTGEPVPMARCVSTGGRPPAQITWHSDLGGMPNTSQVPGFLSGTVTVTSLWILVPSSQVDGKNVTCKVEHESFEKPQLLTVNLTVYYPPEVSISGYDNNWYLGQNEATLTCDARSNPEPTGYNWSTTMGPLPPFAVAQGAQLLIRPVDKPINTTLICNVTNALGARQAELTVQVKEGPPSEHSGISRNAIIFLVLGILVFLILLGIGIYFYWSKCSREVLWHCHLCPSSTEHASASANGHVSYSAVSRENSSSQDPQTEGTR

[5] = molecular target: T2, PVR mutant S72W fused with EGFP, extracted membrane protein (human, UniProt P15151 21-417, S72W); assay: as above; conditions: one partner purified
T2 construct: poliovirus receptor (PVR, CD155), human; Probably the full-length membrane protein; also called PVRS72W; source: membrane protein extracted, quantified by EGFP fluorescence
T2 sequence (looked up): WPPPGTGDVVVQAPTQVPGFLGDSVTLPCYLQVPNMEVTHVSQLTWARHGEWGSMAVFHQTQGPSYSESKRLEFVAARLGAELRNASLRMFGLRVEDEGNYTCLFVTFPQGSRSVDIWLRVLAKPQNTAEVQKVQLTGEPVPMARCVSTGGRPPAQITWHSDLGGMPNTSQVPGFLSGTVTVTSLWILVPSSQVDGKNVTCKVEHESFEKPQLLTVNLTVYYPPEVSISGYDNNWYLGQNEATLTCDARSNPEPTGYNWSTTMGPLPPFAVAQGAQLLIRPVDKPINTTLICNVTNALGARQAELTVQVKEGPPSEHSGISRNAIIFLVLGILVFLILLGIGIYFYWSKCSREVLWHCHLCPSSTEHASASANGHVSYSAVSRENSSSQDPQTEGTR

[6] = molecular target: T3, PVR mutant S72R fused with EGFP, extracted membrane protein (human, UniProt P15151 21-417, S72R); assay: as above; conditions: one partner purified
T3 construct: poliovirus receptor (PVR, CD155), human; Probably the full-length membrane protein; also called PVRS72R; source: membrane protein extracted, quantified by EGFP fluorescence
T3 sequence (looked up): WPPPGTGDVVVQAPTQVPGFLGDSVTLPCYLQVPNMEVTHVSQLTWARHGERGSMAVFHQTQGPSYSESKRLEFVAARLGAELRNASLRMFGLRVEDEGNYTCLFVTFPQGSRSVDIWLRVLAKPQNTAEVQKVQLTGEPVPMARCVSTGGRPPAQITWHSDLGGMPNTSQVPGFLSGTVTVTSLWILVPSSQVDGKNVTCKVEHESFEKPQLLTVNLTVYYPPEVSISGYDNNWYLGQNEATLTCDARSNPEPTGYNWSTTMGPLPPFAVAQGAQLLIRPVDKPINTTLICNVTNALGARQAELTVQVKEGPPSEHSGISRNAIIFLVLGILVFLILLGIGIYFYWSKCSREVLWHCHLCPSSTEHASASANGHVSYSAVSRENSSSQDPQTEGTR

[7] = molecular target: T4, PVR mutant G131V fused with EGFP, extracted membrane protein (human, UniProt P15151 21-417, G131V); assay: as above; conditions: one partner purified
T4 construct: poliovirus receptor (PVR, CD155), human; Probably the full-length membrane protein; also called PVRG131V; source: membrane protein extracted, quantified by EGFP fluorescence
T4 sequence (looked up): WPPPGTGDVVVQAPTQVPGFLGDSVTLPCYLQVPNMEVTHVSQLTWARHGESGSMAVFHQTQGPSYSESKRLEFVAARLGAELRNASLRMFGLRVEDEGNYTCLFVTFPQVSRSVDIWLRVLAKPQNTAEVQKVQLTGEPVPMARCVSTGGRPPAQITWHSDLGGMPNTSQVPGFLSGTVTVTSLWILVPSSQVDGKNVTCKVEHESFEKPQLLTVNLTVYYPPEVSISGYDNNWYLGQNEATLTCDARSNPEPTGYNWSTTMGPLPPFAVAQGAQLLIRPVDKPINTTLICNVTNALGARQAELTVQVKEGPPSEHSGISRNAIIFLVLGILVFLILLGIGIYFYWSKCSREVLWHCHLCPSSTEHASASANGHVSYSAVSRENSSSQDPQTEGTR

[8] = molecular target: T5, PVR mutant S132Q fused with EGFP, extracted membrane protein (human, UniProt P15151 21-417, S132Q); assay: as above; conditions: one partner purified
T5 construct: poliovirus receptor (PVR, CD155), human; Probably the full-length membrane protein; also called PVRS132Q; source: membrane protein extracted, quantified by EGFP fluorescence
T5 sequence (looked up): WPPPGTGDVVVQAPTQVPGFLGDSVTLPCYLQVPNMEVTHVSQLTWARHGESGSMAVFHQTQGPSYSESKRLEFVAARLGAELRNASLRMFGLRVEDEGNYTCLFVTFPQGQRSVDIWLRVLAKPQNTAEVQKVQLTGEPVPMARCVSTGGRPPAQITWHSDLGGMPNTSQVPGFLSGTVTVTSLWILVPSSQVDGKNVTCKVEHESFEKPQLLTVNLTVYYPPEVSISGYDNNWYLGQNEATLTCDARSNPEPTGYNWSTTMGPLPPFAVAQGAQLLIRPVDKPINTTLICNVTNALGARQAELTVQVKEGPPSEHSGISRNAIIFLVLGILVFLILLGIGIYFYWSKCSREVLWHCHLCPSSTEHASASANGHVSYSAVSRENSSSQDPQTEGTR

Sequence of nectin-2 (Homo sapiens) (Q92692 32-360): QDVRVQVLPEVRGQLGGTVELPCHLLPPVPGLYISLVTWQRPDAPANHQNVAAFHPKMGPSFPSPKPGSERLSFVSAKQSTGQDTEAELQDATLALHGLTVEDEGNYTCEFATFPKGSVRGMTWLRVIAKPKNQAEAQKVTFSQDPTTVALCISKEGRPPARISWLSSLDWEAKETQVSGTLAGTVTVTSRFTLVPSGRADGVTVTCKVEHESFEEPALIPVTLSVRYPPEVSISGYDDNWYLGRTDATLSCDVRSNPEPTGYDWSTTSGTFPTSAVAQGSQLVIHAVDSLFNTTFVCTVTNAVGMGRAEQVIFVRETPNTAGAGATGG

For TIGIT (from UniProt Q495A1), the Kd [1] is listed as 5800 nM and the Kd [2] is listed as 3200 nM.

For CD96 (from UniProt P40200), the Kd [3] is listed as 10200 nM.

B1: TIGIT-His eukaryotic protein, Q495A1 22-244 (receptor)
chain: MMTGTIETTGNISAEKGGSIILQCHLSSTTAQVTQVNWEQQDQLLAICNADLGWHISPSFKDRVAPGPGLGLTLQSLTVNDTGEYFCIYHTYPDGTYTGRIFLEVLESSVAEHGARFQIP
modifications: here or on the partner: expressed in eukaryotic cells (glycosylated); His tag omitted; construct limits not given, so the mature extracellular domain (UniProt topology) is used by convention
B1 gave a Kd [4] of 1150 nM.

B2: TIGIT-His eukaryotic protein (receptor)
chain: MMTGTIETTGNISAEKGGSIILQCHLSSTTAQVTQVNWEQQDQLLAICNADLGWHISPSFKDRVAPGPGLGLTLQSLTVNDTGEYFCIYHTYPDGTYTGRIFLEVLESSVAEHGARFQIP
modifications: expressed in eukaryotic cells (glycosylated); His tag omitted; construct limits not given, so the mature extracellular domain (UniProt topology) is used by convention
With B2 the Kd [5] was 328 nM, the Kd [6] was 549 nM and the Kd [7] was 16 nM. The Kd [8] was 58 nM.
